Experimental data from patent US20220395553A1 (COHBAR, published 2022).
Square brackets hold non-standard residues; d marks the D form. Ends that are not written are not given here.

Key:
[1] = biological target: ProLink tagged human CXCR4 (C2C12 CXCR4 β-Arrestin cell line) (human, UniProt P61073 1-352); experiment: cell-based or functional assay
[2] = biological target: T1, SNAP tagged-CXC4 receptor labeled with terbium (Tag-lite CXCR4 cells, HEK293) (UniProt P61073 1-352, SNAP tag labeled with terbium fluorescent dye); experiment: HTRF competition on Tag-lite CXCR4 HEK293 cells; competitor labelled CXCL12
T1 construct: whole, on cells; Bought frozen cells (PerkinElmer-CisBio), HEK293 transiently expressing the receptor; also called terbium labeled CXCR receptor
T1 sequence (P61073 whole entry): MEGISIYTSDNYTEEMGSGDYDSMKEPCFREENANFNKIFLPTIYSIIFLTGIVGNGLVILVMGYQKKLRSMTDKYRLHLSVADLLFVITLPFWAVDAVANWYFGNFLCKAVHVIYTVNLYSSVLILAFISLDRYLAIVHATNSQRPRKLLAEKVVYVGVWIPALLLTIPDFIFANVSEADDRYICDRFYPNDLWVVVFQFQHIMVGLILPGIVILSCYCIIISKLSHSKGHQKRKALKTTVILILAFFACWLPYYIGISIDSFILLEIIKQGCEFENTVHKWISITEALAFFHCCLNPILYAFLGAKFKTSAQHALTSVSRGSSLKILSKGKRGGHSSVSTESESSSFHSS
Method: Peptides were initially prepared as 1 mM stock in H₂O and tested at a final concentration of 400 nM. Following the manufacture's protocol, a frozen aliquot of Tag-lite CXCR4 cells was thawed and immediately seeded onto 384-well plates in TLB. Immediately following the addition of cells, 400 nM peptide (final concentration) in TLB was added to the appropriate well. […] The plates were covered in aluminum foil and left at room temperature for 3 hours. Following the 3 hour incubation period, the plates were removed from the incubator and fluorescence measured using a Cytation 1 plate reader using a HTRF filter cube ([…]; BioTek; Winooski, Vt.).

[3] = biological target: CXCR4 on cultured U937 and Jurkat cells (human, UniProt P61073 1-352); experiment: cell-based or functional assay
Chain of CXCR4 on cultured U937 and Jurkat cells (P61073 whole entry): as above

Chain of ProLink tagged human CXCR4 (C2C12 CXCR4 β-Arrestin cell line) (P61073 whole entry): as above

| Binder | IC50 for Inhibition of CXCR4 Activation (β-Arrestin recruitment) [1] [µM] | Percent Inhibition of CXCR4/CXCL12 Binding (400 nM peptide) [2] [%] | Percent Inhibition of CXCR4/CXCL12 Induced p-MEK (100 nM Test Article) [3] [%] | Percent Inhibition of CXCR4/CXCL12 Induced p-MEK (1 µM Test Article) [3] [%] |
| --- | --- | --- | --- | --- |
| LRRYNHSVRSSLRPYTK [SEQ ID NO: 41] | 0.004 | -2 |  |  |
| LRRYQHSVRSSLRPYTK [SEQ ID NO: 47] | 0.011 | 5 |  |  |
| LERYHHT[dA]RSSLRPYTK [SEQ ID NO: 40] | 0.005 |  | 33 | 94 |
| YHHSVRSSLRPYTK [SEQ ID NO: 12] | > 1 | -13 |  |  |
| LRRYHHSVRSS [SEQ ID NO: 29] | 0.046 | 14 |  |  |
| LRRYHHS[dA]ESSLRPYTK [SEQ ID NO: 64] | 0.014 | -6 |  |  |
| LRRYHHSVRSSLRPYT [SEQ ID NO: 24] | 0.102 | 8 |  |  |
| LRRYHNSVRSSLRPYTK [SEQ ID NO: 44] | 0.032 | 0 |  |  |
| SVRSSLRPYTK [SEQ ID NO: 15] | > 1 | -11 |  |  |
| RRYHHSVRSSLRPYTK [SEQ ID NO: 10] | 0.103 | -8 |  |  |
| LRRYHHSVRSSLEPYTK [SEQ ID NO: 63] | 0.014 | 9 |  |  |
| LRRYHHS[dA]DSSLRPYTK [SEQ ID NO: 68] | 0.013 | -10 |  |  |
| LERYNHSVRSSLRPYTK [SEQ ID NO: 42] | 0.022 | 32 |  |  |
| LREYHHS[dA]RSSLRPYTK [SEQ ID NO: 32] | > 1 | -18 |  |  |
| RYHHSVRSSLRPYTK [SEQ ID NO: 11] | 0.175 | -9 |  |  |
| LREYHHSVRSSLRPYTK [SEQ ID NO: 31] | > 1 | -16 |  |  |
| LRRYHHSVRSSLRPY [SEQ ID NO: 25] | 0.051 | 0 |  |  |
| LRRYHHSVESSLRPYTK [SEQ ID NO: 62] | 0.064 | 4 |  |  |
| LERYQHSVRSSLRPYTK [SEQ ID NO: 48] | 0.053 | 13 |  |  |
| LERYHNSVRSSLRPYTK [SEQ ID NO: 45] | 0.121 | 1 |  |  |
| LRRYHHSVRSSL [SEQ ID NO: 28] | 0.004 | 12 |  |  |
| HSVRSSLRPYTK [SEQ ID NO: 14] | > 1 | -15 |  |  |
| LERYHNS[dA]RSSLRPYTK [SEQ ID NO: 46] | 0.187 | -4 |  |  |
| LRRYHHS[dA]RSSLRPYTK [SEQ ID NO: 6] | 0.008 | -10 |  |  |
| LRRYHHS[dA]RSSLDPYTK [SEQ ID NO: 69] | 0.063 | -5 |  |  |
| LRRYHHS[dA]RSSLEPYTK [SEQ ID NO: 65] | 0.04 | -5 |  |  |
| LRDYHHS[dA]RSSLRPYTK [SEQ ID NO: 37] | > 1 | -14 |  |  |
| LRRYHHSVRSSLRP [SEQ ID NO: 26] | 0.067 | 1 |  |  |
| HHSVRSSLRPYTK [SEQ ID NO: 13] | > 1 | -10 |  |  |
| LRRYHHSVRSSLR [SEQ ID NO: 27] | 0.034 | 10 |  |  |
